B1: sFv-huβ-Gluc: humanized sFv fragment against CEA (from MAb BW 431/26) linked via hinge to human β-glucuronidase; SEQ ID NO:2 (protein)
chain: MGWSCIILFLVATATGVHSQVQLQESGPGLVRPSQTLSLTCTVSGFTISSGYSWHWVRQPPGRGLEWIGYIQYSGITNYNPSLKSRVTMLVDTSKNQFSLRLSSVTAADTAVYYCAREDYDYHWYFDVWGQGTTVTVSSGGGGSGGGGSGGGGSDIQLTQSPSSLSASVGDRVTITCSTSSSVSYMHWYQQKPGKAPKLLIYSTSNLASGVPSRFSGSGSGTDFTFTISSLQPEDIATYYCHQWSSYPTFGQGTKLEIKELKTPLGDTTHTCPRCPAAAAVQGGMLYPQESPSRECKELDGLWSFRADFSDNRRRGFEEQWYRRPLWESGPTVDMPVPSSFNDISQDWRLRHFVGWVWYEREVILPERWTQDLRTRVVLRIGSAHSYAIVWVNGVDTLEHEGGYLPFEADISNLVQVGPLPSRLRITIAINNTLTPTTLPPGTIQYLTDTSKYPKGYFVQNTYFDFFNYAGLQRSVLLYTTPTTYIDDITVTTSVEQDSGLVNYQISVKGSNLFKLEVRLLDAENKVVANGTGTQGQLKVPGVSLWWPYLMHERPAYLYSLEVQLTAQTSLGPVSDFYTLPVGIRTVAVTKSQFLINGKPFYFHGVNKHEDADIRGKGFDWPLLVKDFNLLRWLGANAFRTSHYPYAEEVMQMCDRYGIVVIDECPGVGLALPQFFNNVSLHHHMQVMEEVVRRDKNHPAVVMWSVANEPASHLESAGYYLKMVIAHTKSLDPSRPVTFVSNSNYAADKGAPYVDVICLNSYYSWYHDYGHLELIQLQLATQFENWYKKYQKPIIQSEYGAETIAGFHQDPPLMFTEEYQKSLLEQYHLGLDQKRRKYVVGELIWNFADFMTEQSPTRVLGNKKGIFTRQRQPKSAAFLLRERYWKIANETRYPHSVAKSQCLENSPFT
B2: sFv-huβGluc: sFv 431/26 human β-glucuronidase fusion protein expressed in yeast (Example 9), highly mannosylated (protein)
chain: QVQLQESGPGLVRPSQTLSLTCTVSGFTISSGYSWHWVRQPPGRGLEWIGYIQYSGITNYNPSLKSRVTMLVDTSKNQFSLRLSSVTAADTAVYYCAREDYDYHWYFDVWGQGTTVTVSSGGGGSGGGGSGGGGSDIQLTQSPSSLSASVGDRVTITCSTSSSVSYMHWYQQKPGKAPKLLIYSTSNLASGVPSRFSGSGSGTDFTFTISSLQPEDIATYYCHQWSSYPTFGQGTKLEIKELKTPLGDTTHTCPRCPAAAAVQGGMLYPQESPSRECKELDGLWSFRADFSDNRRRGFEEQWYRRPLWESGPTVDMPVPSSFNDISQDWRLRHFVGWVWYEREVILPERWTQDLRTRVVLRIGSAHSYAIVWVNGVDTLEHEGGYLPFEADISNLVQVGPLPSRLRITIAINNTLTPTTLPPGTIQYLTDTSKYPKGYFVQNTYFDFFNYAGLQRSVLLYTTPTTYIDDITVTTSVEQDSGLVNYQISVKGSNLFKLEVRLLDAENKVVANGTGTQGQLKVPGVSLWWPYLMHERPAYLYSLEVQLTAQTSLGPVSDFYTLPVGIRTVAVTKSQFLINGKPFYFHGVNKHEDADIRGKGFDWPLLVKDFNLLRWLGANAFRTSHYPYAEEVMQMCDRYGIVVIDECPGVGLALPQFFNNVSLHHHMQVMEEVVRRDKNHPAVVMWSVANEPASHLESAGYYLKMVIAHTKSLDPSRPVTFVSNSNYAADKGAPYVDVICLNSYYSWYHDYGHLELIQLQLATQFENWYKKYQKPIIQSEYGAETIAGFHQDPPLMFTEEYQKSLLEQYHLGLDQKRRKYVVGELIWNFADFMTEQSPTRVLGNKKGIFTRQRQPKSAAFLLRERYWKIANETRYPHSVAKSQCLENSPFT

Key:
[1] = test system: PEM (polymorphic epithelial mucin); assay: Specificity enzyme activity test, control plates coated with PEM; type: biochemical
Excerpt: (§1) The ability of the sFv-huβ-Gluc fusion protein to bind specifically to the CEA epitope defined by 431/26 and simultaneously to exert the enzymatic activity of human β-glucuronidase was shown in a specificity enzyme activity test (EP-A2-0 501 215). The test determines the liberation of 4-methylumbelliferone from 4-methylumbelliferyl β-glucuronide by the β-glucuronidase portion of the fusion protein after the fusion protein has been bound via the sFv portion to an antigen. The measured fluorescence values are reported as relative fluorescence units (FU).

[2] = Injection of prodrug after injection of fusion protein, side effects; type: in vivo; conditions: prodrug injected 3 days after injection of the fusion protein; data not shown
Excerpt: This rapid internalization mechanism, which is mainly mediated by galactose and mannose, is closely involved in the advantageous phannacokinetics of the fusion protein according to the invention. These advantageous pharmacokinetics of the fusion protein to which galactose and, in particular, mannose are attached makes it possible for a hydrophilic prodrug which undergoes extracellular distribution to be administered i.v. at a relatively early time without eliciting non-specific prodrug activation. In this case an elimination step as described by Sharma et al. (Brit. J. Cancer, 61, 659, 1990) is unnecessary.

[3] = Analysis of the monosaccharide components in the carbohydrate content (HPAE-PAD after hydrolysis); type: physicochemical
Procedure: Neuraminic acid was determined by the method of Hermentin and Seidat (1991) GBF Monographs Volume 15, pp. 185-188 (after hydrolysis for 30 min in the presence of 0.1 N sulfuric acid at 80° C. and subsequent neutralization with 0.4 N sodium hydroxide solution) by high-pH anion exchange chomatography with pulsed amerometric detection (HPAE-PAD).
The monosaccaride components were determined (after hydrolysis for 4 h in the presence of 2 N trifluoracetic acid at 100° C. and evaporation to dryness in a SpeedVac) likewise by HPAE-PAD in a […] of the method described by Hardy et al. (1988) Analytical Biochemistry 170, pp. 54-62.

CEA = assay: Specificity enzyme activity test, plates coated with CEA; type: biochemical
Excerpt: as §1

[4] = fusion protein from BHK cells, after hydrolysis
[5] = fusion protein expressed by BHK cells
[6] = fusion protein from Saccharomyces cerevisiae

Row | antigen specificity (CEA; [5]) | Molecule | liberation of methylumbelliferone from 4-methylumbelliferyl β-glucuronide [1] | side effects after injection of a suitable prodrug [2] | Fucose, molar ratio [3, 4] | Galactosamine, molar ratio [3, 4] | Galactose, molar ratio [3, 4] | Glucose, molar ratio [3, 4] | Mannose, molar ratio [3, 4] | N-Acetyl glucosamine, molar ratio [3, 4] | N-Acetyl-neuraminic acid, molar ratio [3, 4] | β-glucuronidase activity (CEA; [5]) | liberation of methylumbelliferone from 4-methylumbelliferyl β-glucuronide (CEA; plates coated with CEA) | Glucosamine [3, 6] [mol/mol] | Glucose [3, 6] [mol/mol] | Mannose [3, 6] [mol/mol]
1 | specific for CEA | B1 | does not liberate any methylumbelliferone | without producing significant side effects | 4 mol of carbohydrate/mol of sFv-huβ-Gluc | 2 mol of carbohydrate/mol of sFv-huβ-Gluc | 8 mol of carbohydrate/mol of sFv-huβ-Gluc | 1 mol of carbohydrate/mol of sFv-huβ-Gluc | 43 mol of carbohydrate/mol of sFv-huβ-Gluc | 30 mol of carbohydrate/mol of sFv-huβ-Gluc | 4 mol of carbohydrate/mol of sFv-huβ-Gluc | full β-glucuronidase activity | significant liberation of methyl-umbelliferone | – | – | –
2 | – | B2 | – | – | – | – | – | – | – | – | – | – | – | 6 | 12 | 150

Source: patent US7273727B2, “Fusion proteins for prodrug activation” (Behrinwerke Aktiengesellschaft, priority 1992, dated 2007)
